The results in this text go back to PMC2680711 (Nature structural & molecular biology, 2008).

Series [1] addresses recombinant yeast (H3-H4)2 tetramer (yeast, UniProt P61830 1-136; P02309 1-103). The experiment in a line: other fluorescence titration.
The series “AUC” deals with the molecule itself. The experiment in a line: AUC.
For series [2], the target named is T1, Rtt109 (recombinant, purified) (yeast, UniProt Q07794 1-436).
T1 sequence (looked up): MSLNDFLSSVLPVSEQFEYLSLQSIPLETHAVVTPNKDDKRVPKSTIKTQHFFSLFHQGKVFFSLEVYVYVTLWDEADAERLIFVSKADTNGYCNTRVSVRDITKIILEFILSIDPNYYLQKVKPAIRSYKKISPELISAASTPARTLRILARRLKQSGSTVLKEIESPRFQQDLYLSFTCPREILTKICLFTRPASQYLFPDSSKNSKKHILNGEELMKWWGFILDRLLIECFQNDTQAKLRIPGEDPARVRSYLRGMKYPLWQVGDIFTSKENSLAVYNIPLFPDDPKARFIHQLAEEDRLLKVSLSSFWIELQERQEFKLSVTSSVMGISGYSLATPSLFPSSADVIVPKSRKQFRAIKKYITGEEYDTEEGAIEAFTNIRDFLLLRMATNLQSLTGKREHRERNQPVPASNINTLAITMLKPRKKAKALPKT
The experiment in a line: AUC.

B1: Alexa-546-labeled Vps75 (natural protein, S. cerevisiae)
chain: MMSDQENENEHAKAFLGLAKCEEEVDAIEREVELYRLNKMKPVYEKRDAYIDEIAEFWKIVLSQHVSFANYIRASDFKYIDTIDKIKVEWLALESEMYDTRDFSITFHFHGIEGDFKEQQVTKVFQIKKGKDDQEDGILTSEPVPIEWPQSYDSINPDLIKDKRSPEGKKKYRQGMKTIFGWFRWTGLKPGKEFPHGDSLASLFSEEIYPFCVKYYAEAQRDLEDEEGESGLSADGDSEDDDGSLGEVDLPLSDEEPSSKKRKV
modifications: Alexa-546 label, position not stated
What is called Kd is the equilibrium constant for the complex coming apart. As to B1, the equilibrium dissociation constant (Kd) in series [1] turned out to be 0.027 µM.

B2: Vps75_(1−223) (Vps75 lacking the C-terminal acidic domain) (domain or fragment, S. cerevisiae, UniProt P53853 1-223, looked up)
chain: MMSDQENENEHAKAFLGLAKCEEEVDAIEREVELYRLNKMKPVYEKRDAYIDEIAEFWKIVLSQHVSFANYIRASDFKYIDTIDKIKVEWLALESEMYDTRDFSITFHFHGIEGDFKEQQVTKVFQIKKGKDDQEDGILTSEPVPIEWPQSYDSINPDLIKDKRSPEGKKKYRQGMKTIFGWFRWTGLKPGKEFPHGDSLASLFSEEIYPFCVKYYAEAQRDL
The term stoichiometry N denotes a count of units in the complex or per binding partner. Consider B2, for which the “stoichiometry N” value in “AUC” is 2. Moreover, the binding result in series [2] is “binds”.
